Test results from US20190284243A1, “BINDING PEPTIDES” (University of Copenhagen, priority 2016, published 2019).
Bridge positions count the residues as written; N and C are the ends. Square brackets hold non-standard residues; d marks the D form. Ends that are not written are not given here. dPra = C#CC[C@@H](N)C(=O)O

What was measured:
[1] = biological target: Il10 (Homo sapiens, UniProt P22301); assay: Binding of β-bodies with the target compound (Table 1), Il10; details: Purpose Il10; tested for binding with the target compound
[2] = biological target: Interleukin 2 (Homo sapiens, UniProt P60568); assay: Sandwich binding assay on PEGA beads, IL2 model
Method: For sandwich assays β-bodies identified as described in Examples 1 and 2 were synthesized by standard Fmoc-based solid phase peptide synthesis on biocompatible PEGA-beads (e.g. PEGA1900 which has a porosity allowing penetration of proteins up to 70 kDa). PEGA beads are available from Sigma Aldrich.
The sandwich binding assay was performed as follows: four beads with ligand C prepared as described above were added to 50 μL MilliQ water in a microtiter well containing 100 nM of the peptide D. The well was imaged with an ICX73 fluorescence microscope (Olympus) using a ROX filter cube.
The intensity of the fluorescence is a measure of the concentration of IL2 and the affinity of the interaction. The result obtained after 3 min. incubation is shown in FIG. 10 and after 20 min. incubation in FIG. 1D.

[3] = biological target: Il2 (Homo sapiens, UniProt P60568); assay: Binding of β-bodies with the target compound (Table 1), Il2; details: Purpose Il2; tested for binding with the target compound
[4] = biological target: T1, Papain (Carica papaya, UniProt P00784); assay: Binding of β-bodies with the target compound (Table 1), Papain; details: Purpose Papain; tested for binding with the target compound
T1 sequence (P00784 134-345): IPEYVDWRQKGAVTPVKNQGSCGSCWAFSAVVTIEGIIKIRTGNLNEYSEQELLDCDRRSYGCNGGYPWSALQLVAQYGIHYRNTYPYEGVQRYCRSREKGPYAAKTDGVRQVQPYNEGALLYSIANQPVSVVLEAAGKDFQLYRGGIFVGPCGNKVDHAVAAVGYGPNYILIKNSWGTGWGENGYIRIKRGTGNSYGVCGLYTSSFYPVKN

[5] = system: GFP; details: GFP 60 nM, both bead types incubated at the same time
Method: GFP (60 nM) was incubated with different β-body beads at the same time, a first type of β-body beads specific for GFP (β-body SEQ ID NO: 1;
[…]) and a second type of β-body beads specific for IL1 (β-body SEQ ID NO: 5).

[6] = biological target: eGFP (Aequorea victoria, UniProt P42212, F64L/H231L/S65T); details: Purpose eGFP; tested for binding with the target compound
[7] = system: Il1; assay: Selectivity assay GFP vs. IL1: beads incubated with ROX-IL1; assay type: binding; details: ROX-IL1 100 nM, both bead types incubated at the same time
Excerpt: The same experiment was repeated with IL1.

[8] = system: HRMVRG-PEGA1900; assay: Binding to hexapeptide beads, green fluorescence associated with the beads; details: protein overexpressed in E. coli
Excerpt: The fusion protein as well as EGFP was overexpressed in E. coli and purified from the cell lysate using a PEGA solid support with the hexapeptide partner, […] NO: 4), attached.

Chain of Interleukin 2 (P60568 21-153, species assumed): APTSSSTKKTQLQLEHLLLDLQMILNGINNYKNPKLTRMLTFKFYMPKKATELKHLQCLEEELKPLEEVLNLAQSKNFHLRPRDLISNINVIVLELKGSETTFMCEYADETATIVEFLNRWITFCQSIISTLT
Chain of Il10 (P22301 19-178, species assumed): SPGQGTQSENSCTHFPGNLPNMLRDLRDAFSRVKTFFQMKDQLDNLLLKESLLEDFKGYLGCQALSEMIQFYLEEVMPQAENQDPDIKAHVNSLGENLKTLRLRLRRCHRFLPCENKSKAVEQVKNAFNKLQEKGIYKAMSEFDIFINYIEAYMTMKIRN
Chain of Il2 (P60568 21-153, species assumed): as the sequence (P60568 21-153, species assumed) above

In the case of “TKTRTYTIPGERYTDTWA (Designed peptide) [SEQ ID NO: 21]”, the Binding [1] is reported as “High”.

For “ATNTLTMTWPGRTNTDTFTW (Designed peptide) [SEQ ID NO: 20]”, the Binding [1] was “High”.

In the case of “NTVTNTMTRPGVTETVTQTD (Designed peptide) [SEQ ID NO: 15]”, the “ROX fluorescence accumulation in the beads” value (from here on “ROX fluorescence accumulation”) ([2]; ligand 3 beads + 100 nM ligand 4, Interleukin 2 50 nM, 3 and 20 min) is reported as “positive signal”, the “ROX fluorescence accumulation” value ([2]; ligand 3 beads + 100 nM ligand 4, Interleukin 2 50 nM, 3 and 20 min, listed as C) is reported as “accumulation of significant ROX fluorescence” and the “ROX fluorescence accumulation” value ([2]; ligand 3 beads + 100 nM ligand 4, without IL2 (interaction between the two β-bodies)) is reported as “no signal”. The “ROX fluorescence accumulation” value ([2]; ligand 3 beads + 100 nM ligand 4, without IL2 (interaction between the two β-bodies), listed as C) was “No fluorescence accumulation over background” and the Binding [3] was “High”.

With “IHV-abu(N3)-VTTRTMPGHPIAGADA-pra-TG (IHV[dAbu(N3)]VTTRTMPGHPIAGADA[dPra]TG; triazole 4-21 (inferred); also: X4 listed as D-3-azido-2-aminobutanoic acid, mods say azidohomoalanine) [SEQ ID NO: 49]” the Binding [4] was “Medium”.

“TETKTVTITRPKMTWTFTHTVTG (Designed peptide; PEPTIDE (1)..(23) GFP) [SEQ ID NO: 1]” was tested, and the “Binding of β-body beads to GFP” value [5] was “underwent binding”, the Binding [6] was “High” and the “Binding of β-body beads to IL1” value [7] was “only β-body beads specific for IL1 underwent binding”.

In the case of “EGFP: Enhanced Green Fluorescent Protein, overexpressed in E. coli; control without β-body”, the “Binding to HRMVRG-PEGA1900 (green fluorescence associated with the beads)” value [8] is reported as “does not”.
